Where a chain is given by its changes, count along the chain named.
T1: human CD96v2 expressed on cells (CHO cells; transiently transfected HEK cells) (human, UniProt P40200-2 22-569)
T1 construct: whole, on cells; the cell is named under assay; also called CHO-huCD96; hCD96v2
T1 sequence (looked up): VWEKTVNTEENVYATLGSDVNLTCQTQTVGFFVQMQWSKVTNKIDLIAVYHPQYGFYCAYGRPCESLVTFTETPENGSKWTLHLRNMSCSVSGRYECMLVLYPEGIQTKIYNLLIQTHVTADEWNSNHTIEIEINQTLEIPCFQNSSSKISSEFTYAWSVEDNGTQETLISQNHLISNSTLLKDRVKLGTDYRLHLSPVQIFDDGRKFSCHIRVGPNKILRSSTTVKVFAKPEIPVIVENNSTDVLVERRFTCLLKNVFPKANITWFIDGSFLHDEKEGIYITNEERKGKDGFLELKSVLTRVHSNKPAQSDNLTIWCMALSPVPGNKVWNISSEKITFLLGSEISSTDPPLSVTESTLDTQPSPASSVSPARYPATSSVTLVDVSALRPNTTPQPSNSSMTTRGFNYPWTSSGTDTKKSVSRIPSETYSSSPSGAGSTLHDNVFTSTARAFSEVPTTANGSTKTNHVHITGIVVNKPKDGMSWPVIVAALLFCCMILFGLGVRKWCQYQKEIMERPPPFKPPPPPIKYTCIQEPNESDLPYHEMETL

T2: cynomolgus monkey CD96v2 expressed on cells (CHO cells; transiently transfected HEK cells) (cynomolgus monkey, UniProt A0A2K5TWV6 22-569)
T2 construct: the cell is named under assay; also called CHO-cyCD96; Cyno CD96v2
T2 sequence: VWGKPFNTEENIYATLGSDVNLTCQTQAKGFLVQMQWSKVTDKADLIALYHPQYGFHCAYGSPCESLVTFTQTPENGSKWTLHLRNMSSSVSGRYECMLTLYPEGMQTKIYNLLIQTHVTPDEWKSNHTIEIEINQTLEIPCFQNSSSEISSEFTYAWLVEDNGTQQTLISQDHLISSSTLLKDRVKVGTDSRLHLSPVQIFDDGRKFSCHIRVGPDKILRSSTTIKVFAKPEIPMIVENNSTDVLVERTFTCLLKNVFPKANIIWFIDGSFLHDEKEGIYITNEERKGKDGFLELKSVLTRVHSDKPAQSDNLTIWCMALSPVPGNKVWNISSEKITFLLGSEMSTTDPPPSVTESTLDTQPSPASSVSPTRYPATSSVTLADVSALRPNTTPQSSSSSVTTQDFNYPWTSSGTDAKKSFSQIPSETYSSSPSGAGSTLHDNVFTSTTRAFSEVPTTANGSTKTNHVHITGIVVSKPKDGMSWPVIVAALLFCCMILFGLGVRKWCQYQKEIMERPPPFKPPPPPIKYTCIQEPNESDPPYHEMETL

B1: 42Y073-2B04-46 (antibody, V domains shown)
VH: QVQLQQWGAGLLKPSETLSLTCAVYGGSFRRYYWSWIRQPPGKGLEWIGEIDGWGSTNYNPSLKSRVTISVDTSKNQFSLKLSSVTAADTAVYYCARGGSVDFWSGSDYYYYMDVWGKGATVTVSS
VL: EIVLTQSPATLSLSPGERATLSCRASQSVSSYLAWYQQKPGQAPRLLIYDASKRATGIPARFSGSGSGTDFTLTISSLEPEDFAVYYCQQLDNWPITFGGGTKVEIK
notes: Fully human antibody; also called 42Y073-2804-46
B2: 42Y073-86F08-4 (antibody, V domains shown)
VH: QVQLVQSGAEVKKPGSSVKVSCKASGGTFSEYAIHWVRQAPGQGLEWMGNIIPIFGTAGYAQKFQGRVTITADESTSTAYMELSSLRSEDTAVYYCARGAGYYGDKDPMDVWGQGTTVTVSS
VL: DIQLTQSPSSLSASVGDRVTITCRASQSISSYLNWYQQKPGKAPKLLIYAASSLQSGVPSRFSGSGSGTDFTLTISSLQPEDFATYYCQQVLHTITFGGGTKVEIK
notes: Fully human antibody
B3: 42Y073-86F08-47 (antibody, V domains shown)
VH: B2 VH with E31Q, N50V, T57K, G59N
VL: B2 VL
notes: Fully human antibody
B4: 42Y073-86F08-22 (antibody, V domains shown)
VH: B2 VH with S16A, G27Y, S30D, E31S, I34M, N50G, G59W
VL: B2 VL
notes: Fully human antibody
B5: 42Y073-86F08-8 (antibody, V domains shown)
VH: B2 VH with S30W, E31L, H35S, N50G, I54Q, F55L, G59N
VL: B2 VL
notes: Fully human antibody; also called 42Y073-88F08-8
B6: 42Y073-86F08-17 (antibody, V domains shown)
VH: B2 VH with S30R, H35S, N50G, I54V, G59N
VL: B2 VL
notes: Fully human antibody; also called 42Y073-88F08-17

target: T1, human CD96v2 expressed on cells (CHO …); test: flow cytometry on CHO cells expressing human CD96v2

| Binder | EC50 |
| --- | --- |
| B1 | 1.06 nM |
| B2 | 0.04 nM |
| B3 | 0.05 nM |
| B4 | 0.03 nM |
| B5 | 0.17 nM |
| B6 | 0.1 nM |

target: T2, cynomolgus monkey CD96v2 expressed on …; test: flow cytometry on CHO cells expressing cynomolgus CD96v2

| Binder | EC50 |
| --- | --- |
| B1 | 0.04 nM |
| B2 | 0.07 nM |
| B3 | 0.06 nM |
| B4 | 0.09 nM |
| B5 | 0.03 nM |
| B6 | 0.03 nM |

target: T1, human CD96v2 expressed on cells (CHO …); test: flow cytometry, inhibition of human CD155-Fc-AF647 binding to CHO cells expressing human CD96v2; competitor CD155-Fc

| Binder | IC50 |
| --- | --- |
| B1 | 0.4 nM |
| B2 | 0.38 nM |
| B3 | 0.17 nM |
| B4 | 0.41 nM |
| B5 | 0.93 nM |
| B6 | 0.52 nM |
